{"source": "paper PMC8228269", "about": "“Characterization of Feruloyl Esterase from Bacillus pumilus SK52.001 and Its Application in Ferulic Acid Production from De-Starched Wheat Bran” (Foods, 2021)", "proteins": {"B1": {"name": "BpFAE (Bacillus pumilus) (protein)", "chain": "MNLQEQIKIAASLRQPAEGSLPSQSELKPVHPPEVNKMEYDIPTSAGETKVWIFKPVNTSKQPLPVFVNLHGGGFILGSAEMDNHWCPVIADRAQCIVVNVEYQLAPEHPFPAALHECYDVLKWLYEHPDELQIDPNRVAIGGHSAGGNLATAACLLNIQKGNPVPIVYQVLDYPPLDLATDPAEKPAFEEAIPVEMARLFNAFYLQGQDPHNPLVSPIFADRSSLAQLPPALVITAERDSLAQEAEQYAEKLKEAGVDVTYRQFKGVPHAFTHAGDLEIAEEAWHLMSDQLKKAFE", "notes": "C-terminal 6xHis tag (removal not mentioned); expressed in B. subtilis WB800 from pMA5 (NdeI/BamHI); forward primer reads […]; (ATG of the NdeI site followed by a second ATG)"}}, "substrate": "COC(=O)/C=C/c1ccc(O)c(OC)c1", "experiment": "HPLC-UV of released ferulic acid, nonlinear Hill fit", "type": "biochemical, Bacillus pumilus", "conditions": "0.1-8 mmol/L substrate, 50 mmol/L Tris-HCl pH 9.0, 50 °C", "data": [{"protein": "B1", "values": [{"measurement": "Km", "result": 0.95, "unit": "mmol/L"}, {"measurement": "kcat", "result": 514.91, "unit": "s⁻¹"}]}]}
